Measured values reported in paper PMC5700162, “Structural insights into the committed step of bacterial phospholipid biosynthesis” (Nature Communications, 2017).

B1: aaPlsY (Aquifex aeolicus VF5; H177A) (protein)
chain: MKALFLVIFAYLLGSITFGEVIAKLKGVDLRNVGSGNVGATNVTRALGKKYGVLVFFLDFLKGFIPALIAVKSFGIDSWVLTFTGLASVLGHMYPVFFGFKGGKGVATALGVVFAVSPSVALFSFLVWLGIFLWKRYVSLASITATISAFLFLFVAGYPVNVLFMAIVIGALIIYRARENINRLLTGREHRF
notes: full length, 192 residues, monomer, codon-optimised gene, E. coli BL21(DE3); assays: C-terminal His8 tag (p3EC); crystals: C-terminal His-eGFP removed by 3C protease; DDM-purified, reconstituted in lipid cubic phase
B2: aaPlsY (Aquifex aeolicus VF5; E189A) (protein)
chain: MKALFLVIFAYLLGSITFGEVIAKLKGVDLRNVGSGNVGATNVTRALGKKYGVLVFFLDFLKGFIPALIAVKSFGIDSWVLTFTGLASVLGHMYPVFFGFKGGKGVATALGVVFAVSPSVALFSFLVWLGIFLWKRYVSLASITATISAFLFLFVAGYPVNVLFMAIVIGALIIYRHRENINRLLTGRAHRF
notes: as for B1
B3: aaPlsY (Aquifex aeolicus VF5; T41A) (protein)
chain: MKALFLVIFAYLLGSITFGEVIAKLKGVDLRNVGSGNVGAANVTRALGKKYGVLVFFLDFLKGFIPALIAVKSFGIDSWVLTFTGLASVLGHMYPVFFGFKGGKGVATALGVVFAVSPSVALFSFLVWLGIFLWKRYVSLASITATISAFLFLFVAGYPVNVLFMAIVIGALIIYRHRENINRLLTGREHRF
notes: as for B1
B4: aaPlsY (Aquifex aeolicus VF5; S142A) (protein)
chain: MKALFLVIFAYLLGSITFGEVIAKLKGVDLRNVGSGNVGATNVTRALGKKYGVLVFFLDFLKGFIPALIAVKSFGIDSWVLTFTGLASVLGHMYPVFFGFKGGKGVATALGVVFAVSPSVALFSFLVWLGIFLWKRYVSLAAITATISAFLFLFVAGYPVNVLFMAIVIGALIIYRHRENINRLLTGREHRF
notes: as for B1
B5: aaPlsY (Aquifex aeolicus VF5; R45A) (protein)
chain: MKALFLVIFAYLLGSITFGEVIAKLKGVDLRNVGSGNVGATNVTAALGKKYGVLVFFLDFLKGFIPALIAVKSFGIDSWVLTFTGLASVLGHMYPVFFGFKGGKGVATALGVVFAVSPSVALFSFLVWLGIFLWKRYVSLASITATISAFLFLFVAGYPVNVLFMAIVIGALIIYRHRENINRLLTGREHRF
notes: as for B1
B6: aaPlsY (Aquifex aeolicus VF5; K104A) (protein)
chain: MKALFLVIFAYLLGSITFGEVIAKLKGVDLRNVGSGNVGATNVTRALGKKYGVLVFFLDFLKGFIPALIAVKSFGIDSWVLTFTGLASVLGHMYPVFFGFKGGAGVATALGVVFAVSPSVALFSFLVWLGIFLWKRYVSLASITATISAFLFLFVAGYPVNVLFMAIVIGALIIYRHRENINRLLTGREHRF
notes: as for B1
B7: aaPlsY (Aquifex aeolicus VF5; S35A) (protein)
chain: MKALFLVIFAYLLGSITFGEVIAKLKGVDLRNVGAGNVGATNVTRALGKKYGVLVFFLDFLKGFIPALIAVKSFGIDSWVLTFTGLASVLGHMYPVFFGFKGGKGVATALGVVFAVSPSVALFSFLVWLGIFLWKRYVSLASITATISAFLFLFVAGYPVNVLFMAIVIGALIIYRHRENINRLLTGREHRF
notes: as for B1
B8: aaPlsY (Aquifex aeolicus VF5; N180A) (protein)
chain: MKALFLVIFAYLLGSITFGEVIAKLKGVDLRNVGSGNVGATNVTRALGKKYGVLVFFLDFLKGFIPALIAVKSFGIDSWVLTFTGLASVLGHMYPVFFGFKGGKGVATALGVVFAVSPSVALFSFLVWLGIFLWKRYVSLASITATISAFLFLFVAGYPVNVLFMAIVIGALIIYRHREAINRLLTGREHRF
notes: as for B1
B9: aaPlsY (Aquifex aeolicus VF5; N37A) (protein)
chain: MKALFLVIFAYLLGSITFGEVIAKLKGVDLRNVGSGAVGATNVTRALGKKYGVLVFFLDFLKGFIPALIAVKSFGIDSWVLTFTGLASVLGHMYPVFFGFKGGKGVATALGVVFAVSPSVALFSFLVWLGIFLWKRYVSLASITATISAFLFLFVAGYPVNVLFMAIVIGALIIYRHRENINRLLTGREHRF
notes: as for B1
B10: aaPlsY (Aquifex aeolicus VF5; H92A) (protein)
chain: MKALFLVIFAYLLGSITFGEVIAKLKGVDLRNVGSGNVGATNVTRALGKKYGVLVFFLDFLKGFIPALIAVKSFGIDSWVLTFTGLASVLGAMYPVFFGFKGGKGVATALGVVFAVSPSVALFSFLVWLGIFLWKRYVSLASITATISAFLFLFVAGYPVNVLFMAIVIGALIIYRHRENINRLLTGREHRF
notes: as for B1
B11: aaPlsY (Aquifex aeolicus VF5) (protein)
chain: MKALFLVIFAYLLGSITFGEVIAKLKGVDLRNVGSGNVGATNVTRALGKKYGVLVFFLDFLKGFIPALIAVKSFGIDSWVLTFTGLASVLGHMYPVFFGFKGGKGVATALGVVFAVSPSVALFSFLVWLGIFLWKRYVSLASITATISAFLFLFVAGYPVNVLFMAIVIGALIIYRHRENINRLLTGREHRF
notes: as for B1

Target: T1, aaPlsY (Aquifex aeolicus, UniProt O66905)
Assay: not given
Design: gene plsY
Details: 7.8 MAG LCP with 0.4 M Na2HPO4, pH 7.0; three phosphates from phosphate hole to phosphate clamp

In the case of O=P(O)(O)O [Pi, inorganic phosphate], the “X-ray crystal structure, 1.83 Å” value is reported as “three phosphates are trapped in a positive patch stretching from the phosphate hole”.

Substrate: O=P(O)(O)OC[C@H](O)CO
Assay: coupled MDCC-PBP Pi-biosensor fluorescence assay in lipid cubic phase (monoolein)
Format: biochemical, Aquifex aeolicus
Details: co-substrate 3.3-5.2 mol% 16:0-P, pH 8.0, 30 °C, no technical replicates
Description: coupled MDCC-PBP Pi-biosensor fluorescence assay in lipid cubic phase (monoolein) on […]

Point of comparison: B1, Km 9.24 mM. Against it:
- B2 — 1.6-fold lower, 5.79 mM
- B3 — 21-fold lower, 0.43 mM
- B4 — 3.2-fold lower, 2.89 mM
- B5 — 5.5-fold higher, 50.46 mM
- B6 — within 1.5-fold, 6.58 mM
- B7 — within 1.5-fold, 13.75 mM
- B8 — 2.8-fold higher, 26.31 mM
- B9 — 3-fold lower, 3.04 mM
- B10 — 3.5-fold lower, 2.64 mM

Point of comparison: B6, kcat 1 s⁻¹. Against it:
- B1 — within 1.5-fold, 0.88 s⁻¹
- B2 — 18-fold higher, 18.5 s⁻¹
- B3 — 1.6-fold lower, 0.64 s⁻¹
- B4 — 4.3-fold higher, 4.29 s⁻¹
- B5 — 6.7-fold lower, 0.15 s⁻¹
- B7 — 1.6-fold lower, 0.64 s⁻¹
- B8 — 1.6-fold lower, 0.62 s⁻¹
- B9 — 2.5-fold higher, 2.49 s⁻¹
- B10 — 2.4-fold higher, 2.37 s⁻¹

Substrate: O=P(O)(O)OC[C@H](O)CO
Assay: as above
Format: biochemical, Aquifex aeolicus
Details: co-substrate 1.8 mol% 16:0-P, pH 8.0, 30 °C, 0-50 mM G3P

With B11 the Km was 1.39 mM.

For B11, the kcat was 13.4 s⁻¹.

Target: T1, aaPlsY
Assay: as above
Format: biochemical
Design: gene plsY; full length, 192 residues, monomer, codon-optimised gene, E. coli BL21(DE3); assays: C-terminal His8 tag (p3EC); crystals: C-terminal His-eGFP removed by 3C protease; DDM-purified, reconstituted in lipid cubic phase
Details: co-substrate 30 mM glycerol phosphate; pH 8.0, 30 °C; 0-2 mol% 16:0-P in the lipid phase

For CCCCCCCCCCCCCCCC(=O)OP(=O)(O)O [16:0-P, palmitoyl phosphate], the “apparent Km” value was 0.1 mol% (relative to monoolein).
